According to the supplement of paper PMC7125110:
± gives the standard error. Variants at the floor of the assay were thinned out.

B1: glmS ribozyme (parent)
chain: AUAAAAGCGCCAGAACUACAGAAAUGUAGUUGACGAGGAGGAGGUUUAUCGAAUUUUCGGCGGAUGCCUCCAAA

What was measured:
Conditions in all cases: with glucosamine-6-phosphate
[1] = variants of: B1; test: self-cleavage kobs at 640 uM GlcN6P; higher = faster cleavage; RNA array
Procedure, shortened: (§1)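 On sequenced MiSeq chips, barcoded ribozyme variants were made in situ by E. coli RNA polymerase and followed at 37 °C through a hybridised Cy3 probe. Glucosamine-6-phosphate was flowed in at 40 μM to 10 mM in HEPES/KCl/Mg(OAc)2 buffer. Exponential fits to normalised per-tile medians gave kobs, and weighted Michaelis–Menten fits gave kcat and KM.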

[2] = variants of: B1; test: self-cleavage kobs at 2500 uM GlcN6P; higher = faster cleavage; RNA array
Procedure, shortened: as §1

[3] = variants of: B1; test: self-cleavage kobs at 10000 uM GlcN6P; higher = faster cleavage; RNA array
Procedure, shortened: as §1

Variant	self-cleavage kobs at 640 uM GlcN6P [1] [s⁻¹]	self-cleavage kobs at 2500 uM GlcN6P [2] [s⁻¹]	self-cleavage kobs at 10000 uM GlcN6P [3] [s⁻¹]
U56C C61U C71G	< 1e-05	–	–
U45C A48C G63U	< 1e-05	< 1e-05	–
G51U C70A	5.2e-05 ± 1.5e-05	–	–
G40A G41A A42U C68G	< 1e-05	< 1e-05	–
G43C G51A C67U	< 1e-05	–	–
A39C G51A A64G	< 1e-05	–	–
A39G A53C C67U	0.00111 ± 0.00036	0.000701 ± 0.00027	–
G41U C58G C61U A64U C71U	< 1e-05	–	–
G44A C50G	< 1e-05	< 1e-05	< 1e-05
A53G U54G U55G C61A C70U	0.000595 ± 0.00019	7.21e-05 ± 2.5e-05	–
U47G A52U C68G	0.000113 ± 4.9e-05	–	–
G38A G41U A42C U45C U54G C68G	< 1e-05	–	–
U55C C61G G62C	< 1e-05	–	–
A39C U45G C70G	< 1e-05	< 1e-05	–
U45A G51C G60A C71U	< 1e-05	< 1e-05	–
A52C A53C U55C C67G	< 1e-05	< 1e-05	–
A42G A64G C70A	4.59e-05 ± 2.2e-05	0.000247 ± 6.8e-05	–
G37C G40U U46G G63U	< 1e-05	–	< 1e-05
G43C A52C C68A	< 1e-05	–	–
C61U C67G	< 1e-05	–	–
U45C U65C G66U C68G	< 1e-05	< 1e-05	–
G38C G41U G44C	< 1e-05	< 1e-05	–

Variant	self-cleavage kobs at 640 uM GlcN6P [1] [s⁻¹]	self-cleavage kobs at 2500 uM GlcN6P [2] [s⁻¹]	self-cleavage kobs at 10000 uM GlcN6P [3] [s⁻¹]
A39U U55C U65G	0.000491 ± 0.00014	0.00164 ± 0.00045	–
G43C U49A U57G C68G	< 1e-05	–	–
G38U C50A	< 1e-05	< 1e-05	–
A39G C67G C68G	9.65e-05 ± 2.5e-05	7.78e-05 ± 1.7e-05	–
G44C U47C A53G	< 1e-05	–	–
U45C U46G C67G	9.48e-05 ± 2.9e-05	–	–
U49G G62C	< 1e-05	–	–
G41U A48U A64C	< 1e-05	< 1e-05	–
G51C U56A	< 1e-05	–	< 1e-05
G51C U56G	< 1e-05	< 1e-05	< 1e-05
G62U G63U G66C	< 1e-05	< 1e-05	–
G43A U55A C58U	< 1e-05	–	–
A39C A52C C71A	< 1e-05	< 1e-05	–
U49A C50A C70G	5.26e-05 ± 2.2e-05	4.46e-05 ± 2e-05	–
G51U A52G G59A	< 1e-05	< 1e-05	–
G41A U49C G60U	< 1e-05	–	–
U46G C58A A64U	< 1e-05	< 1e-05	–
G44U C67U C71U	0.00022 ± 6.3e-05	0.00069 ± 0.00025	–
A39G G40U C58G	< 1e-05	–	–
C58U G62A C68G	6.69e-05 ± 2.4e-05	–	–
G40U G41A A42U U54G G60U C71U	< 1e-05	< 1e-05	< 1e-05
U47A C61A C67G C71A	< 1e-05	< 1e-05	–

Variant	self-cleavage kobs at 640 uM GlcN6P [1] [s⁻¹]	self-cleavage kobs at 2500 uM GlcN6P [2] [s⁻¹]	self-cleavage kobs at 10000 uM GlcN6P [3] [s⁻¹]
G38C U55A A64C	< 1e-05	–	–
U47C U55C	0.00134 ± 0.00031	0.0023 ± 0.00064	–
G60C C70A	< 1e-05	–	< 1e-05
G37U A42C C50A A64U	< 1e-05	–	–
A39U G44U U47C G51U	< 1e-05	–	–
U45C U54G U56A	0.000123 ± 2.3e-05	0.000428 ± 0.00012	0.000928 ± 0.00017
A42U C58A C61G	< 1e-05	< 1e-05	–
A48C U49G	< 1e-05	–	< 1e-05
U47A A48U C58G	< 1e-05	< 1e-05	–
A39U C58A A64U	< 1e-05	< 1e-05	–
G44C U57G C58U	< 1e-05	–	–
G37A U45C	5.03e-05 ± 1.6e-05	6.95e-05 ± 1.3e-05	0.000173 ± 4.9e-05
C50G C58U C61U	0.000479 ± 0.00011	–	–
U57A G60A C67G	6.42e-05 ± 2.2e-05	0.000109 ± 3.2e-05	–
G44A U46A G62A	< 1e-05	–	–
A48U G62U C70U	< 1e-05	–	–
A53U U56A C71U	0.00121 ± 0.00015	0.00323 ± 0.00064	–
U65G G66C	0.000223 ± 4.9e-05	–	0.00137 ± 0.00016
G37A U46G C71U	6.59e-05 ± 3.1e-05	–	–
A39U A53C C71A	8.85e-05 ± 1.7e-05	0.000186 ± 5.3e-05	–
